Results published in patent US20170145472.

Molecular target: T1, HCV NS3 helicase (Hepatitis C virus) (UniProt P26663)
T1 sequence: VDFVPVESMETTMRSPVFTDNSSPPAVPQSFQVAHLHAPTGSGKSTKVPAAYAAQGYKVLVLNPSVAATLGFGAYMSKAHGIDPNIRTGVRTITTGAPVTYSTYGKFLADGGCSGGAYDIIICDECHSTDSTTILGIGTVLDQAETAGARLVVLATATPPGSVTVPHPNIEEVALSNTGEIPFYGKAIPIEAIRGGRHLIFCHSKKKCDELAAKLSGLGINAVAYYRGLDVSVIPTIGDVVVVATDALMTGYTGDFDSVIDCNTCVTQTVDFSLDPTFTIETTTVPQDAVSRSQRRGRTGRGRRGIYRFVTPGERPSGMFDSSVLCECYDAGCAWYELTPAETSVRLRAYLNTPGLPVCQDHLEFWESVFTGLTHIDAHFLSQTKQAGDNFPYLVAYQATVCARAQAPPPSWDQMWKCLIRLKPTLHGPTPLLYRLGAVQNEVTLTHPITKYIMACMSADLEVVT

**Q.** For “GTGGGTAGGGCGGGTTGGTGGCGACGGCAGCGAGGCAGAGGAGCAGAGGGAGCA / GCCTCGCTGCCGTCGCCACCAACCCGCCC [ON1/ON2 duplex substrate]”, which activity (fold luminescence enhancement) is on record?
**A.** 4.5
